Patent US20200181634A1 (MENDEL BIOTECHNOLOGY, published 2020)

Target: T1, SALT TOLERANCE HOMOLOG2 (STH2) (Arabidopsis thaliana, UniProt Q9LQZ7 1-331, limits assumed)
T1 construct: also called G1482
T1 sequence: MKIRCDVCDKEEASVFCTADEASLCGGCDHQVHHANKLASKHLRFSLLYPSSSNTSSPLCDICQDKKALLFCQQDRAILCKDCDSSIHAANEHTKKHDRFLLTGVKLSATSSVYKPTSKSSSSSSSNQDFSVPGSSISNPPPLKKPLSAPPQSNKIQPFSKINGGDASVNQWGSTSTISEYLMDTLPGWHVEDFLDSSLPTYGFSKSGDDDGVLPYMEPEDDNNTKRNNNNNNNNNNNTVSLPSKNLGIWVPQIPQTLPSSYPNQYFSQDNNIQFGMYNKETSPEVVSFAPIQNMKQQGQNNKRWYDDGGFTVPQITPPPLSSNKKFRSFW
Assay: in vitro and protoplast based studies (methods not described)

B1: G1988 (other)
chain: MVSFCELCGAEADLHCAADSAFLCRSCDAKFHASNFLFARHFRRVICPNCKSLTQNFVSGPLLPWPPRTTCCSESSSSSCCSSLDCVSSSELSSTTRDVNRARGRENRVNAKAVAVTVADGIFVNWCGKLGLNRDLTNAVVSYASLALAVETRPRATKRVFLAAAFWFGVKNTTTWQNLKKVEDVTGVSAGMIRAVESKLARAMTQQLRRWRVDSEEGWAENDNV
notes: also called B-box zinc finger transcription factor G1988
B1: binds.
